Consider 4 molecules from paper doi:10.1101/2025.10.13.682107, “Oxidative stress sensing by the translation elongation machinery promotes production of detoxifying selenoproteins” (bioRxiv, 2025).

The target of assay [1] is EEF1G (eukaryotic elongation factor 1 subunit gamma), endogenous (human (endogenous in HEK293T)) (UniProt P26641). In words: mass photometry; EEF1S complex recovered by glutathione-Sepharose from HEK293T lysate and run on SEC (Superdex 200); stoichiometry from the mass (~270 kDa) and Coomassie staining; complex formed in cells and co-purified.
Sequence of EEF1G (eukaryotic elongation factor 1 subunit gamma), endogenous (human (endogenous in HEK293T)) (P26641 whole entry): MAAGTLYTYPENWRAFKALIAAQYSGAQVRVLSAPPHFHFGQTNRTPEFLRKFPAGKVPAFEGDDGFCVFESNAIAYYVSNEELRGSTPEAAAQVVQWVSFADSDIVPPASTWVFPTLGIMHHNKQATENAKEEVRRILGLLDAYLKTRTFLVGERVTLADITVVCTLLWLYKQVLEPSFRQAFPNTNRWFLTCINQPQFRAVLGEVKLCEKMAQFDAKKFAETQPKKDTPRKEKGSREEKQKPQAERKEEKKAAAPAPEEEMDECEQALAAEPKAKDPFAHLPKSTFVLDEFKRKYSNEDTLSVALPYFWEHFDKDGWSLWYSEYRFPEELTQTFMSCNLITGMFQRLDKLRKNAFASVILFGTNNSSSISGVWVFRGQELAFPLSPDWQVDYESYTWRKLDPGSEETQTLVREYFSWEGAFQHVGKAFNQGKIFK
For assay [2], the target named is endogenously Strep-tagged EEF1G (human (endogenous in HEK293T)) (UniProt P26641). In words: mass photometry; EEF1H complex recovered by affinity purification of endogenous strep-tagged EEF1G from HEK293T lysates; stoichiometry predicted from molecular weight of components and Coomassie staining; complex formed in cells and co-purified.
Sequence of endogenously Strep-tagged EEF1G (human (endogenous in HEK293T)) (P26641 whole entry): as above
Assay [3] deals with T1, endogenously Strep-tagged EEF1G (human (endogenous in HEK293T), UniProt P26641 1-437).
T1 construct: EEF1G, human, endogenous locus of HEK293T edited to carry an internal Twin-Strep tag in the unstructured region between the GST and C-terminal domains; also called strep-EEF1G; source: endogenous locus tagged by CRISPR-Cas9 knock-in, HEK293T; not shown: Twin-Strep, internal (in the unstructured region between the GST and C-terminal domains), kept
T1 sequence (P26641 whole entry, the tested form may be a part): as the sequence (P26641 whole entry) above
Described as above. Conditions: partners not purified.

Assay [4] has as its target T2, EEF1G (eukaryotic elongation factor 1 subunit gamma), endogenous (human (endogenous in HEK293T), UniProt P26641 1-437).
T2 construct: EEF1G, human, endogenous untagged protein in HEK293T lysate, recovered on glutathione-Sepharose; source: endogenous, HEK293T lysate
As to the kind of experiment: mass photometry; EEF1S complex recovered by glutathione-Sepharose from HEK293T lysate and run on SEC (Superdex 200); stoichiometry from the mass (~270 kDa) and Coomassie staining; complex formed in cells and co-purified. The conditions noted are these: partners not purified.

T2 sequence (P26641 whole entry): as above

In turn, “EEF1A, endogenous (from UniProt P68104 1-462) (natural protein)” returned a stoichiometry N in assay [1] of 1. Moreover, the copies in the EEF1H complex (with six copies of EEF1G) in assay [2] is 6 copies.

B1: valine tRNA synthase (VARS), endogenous (enzyme, human (endogenous in HEK293T), UniProt P26640 1-1264, looked up)
chain: MSTLYVSPHPDAFPSLRALIAARYGEAGEGPGWGGAHPRICLQPPPTSRTPFPPPRLPALEQGPGGLWVWGATAVAQLLWPAGLGGPGGSRAAVLVQQWVSYADTELIPAACGATLPALGLRSSAQDPQAVLGALGRALSPLEEWLRLHTYLAGEAPTLADLAAVTALLLPFRYVLDPPARRIWNNVTRWFVTCVRQPEFRAVLGEVVLYSGARPLSHQPGPEAPALPKTAAQLKKEAKKREKLEKFQQKQKIQQQQPPPGEKKPKPEKREKRDPGVITYDLPTPPGEKKDVSGPMPDSYSPRYVEAAWYPWWEQQGFFKPEYGRPNVSAANPRGVFMMCIPPPNVTGSLHLGHALTNAIQDSLTRWHRMRGETTLWNPGCDHAGIATQVVVEKKLWREQGLSRHQLGREAFLQEVWKWKEEKGDRIYHQLKKLGSSLDWDRACFTMDPKLSAAVTEAFVRLHEEGIIYRSTRLVNWSCTLNSAISDIEVDKKELTGRTLLSVPGYKEKVEFGVLVSFAYKVQGSDSDEEVVVATTRIETMLGDVAVAVHPKDTRYQHLKGKNVIHPFLSRSLPIVFDEFVDMDFGTGAVKITPAHDQNDYEVGQRHGLEAISIMDSRGALINVPPPFLGLPRFEARKAVLVALKERGLFRGIEDNPMVVPLCNRSKDVVEPLLRPQWYVRCGEMAQAASAAVTRGDLRILPEAHQRTWHAWMDNIREWCISRQLWWGHRIPAYFVTVSDPAVPPGEDPDGRYWVSGRNEAEAREKAAKEFGVSPDKISLQQDEDVLDTWFSSGLFPLSILGWPNQSEDLSVFYPGTLLETGHDILFFWVARMVMLGLKLTGRLPFREVYLHAIVRDAHGRKMSKSLGNVIDPLDVIYGISLQGLHNQLLNSNLDPSEVEKAKEGQKADFPAGIPECGTDALRFGLCAYMSQGRDINLDVNRILGYRHFCNKLWNATKFALRGLGKGFVPSPTSQPGGHESLVDRWIRSRLTEAVRLSNQGFQAYDFPAVTTAQYSFWLYELCDVYLECLKPVLNGVDQVAAECARQTLYTCLDVGLRLLSPFMPFVTEELFQRLPRRMPQAPPSLCVTPYPEPSECSWKDPEAEAALELALSITRAVRSLRADYNLTRIRPDCFLEVADEATGALASAVSGYVQALASAGVVAVLALGAPAPQGCAVALASDRCSIHLQLQGLVDPARELGKLQAKRVEAQRQAQRLRERRAASGYPVKVPLEVQEADEAKLQQTEAELRKVDEAIALFQKML
notes: valine tRNA synthase (VARS), human, endogenous in HEK293T; source: endogenous, HEK293T lysate
Take B1: the “copies in the EEF1H complex (with six copies of EEF1G)” value (from here on “copies in the EEF1H complex”) in assay [3] is around 2 copies.

B2: EEF1D, endogenous (natural protein, human (endogenous in HEK293T), UniProt P29692 1-281, looked up)
chain: MATNFLAHEKIWFDKFKYDDAERRFYEQMNGPVAGASRQENGASVILRDIARARENIQKSLAGSSGPGASSGTSGDHGELVVRIASLEVENQSLRGVVQELQQAISKLEARLNVLEKSSPGHRATAPQTQHVSPMRQVEPPAKKPATPAEDDEDDDIDLFGSDNEEEDKEAAQLREERLRQYAEKKAKKPALVAKSSILLDVKPWDDETDMAQLEACVRSIQLDGLVWGASKLVPVGYGIRKLQIQCVVEDDKVGTDLLEEEITKFEEHVQSVDIAAFNKI
notes: EEF1D (guanine nucleotide exchange factor subunit of EEF1H), human, endogenous in HEK293T; source: endogenous, HEK293T lysate
Turning to B2, the “copies in the EEF1H complex” value in assay [3] was around 4 copies.

B3: EEF1B, endogenous (natural protein, human (endogenous in HEK293T), UniProt P24534 1-225, looked up)
chain: MGFGDLKSPAGLQVLNDYLADKSYIEGYVPSQADVAVFEAVSSPPPADLCHALRWYNHIKSYEKEKASLPGVKKALGKYGPADVEDTTGSGATDSKDDDDIDLFGSDDEEESEEAKRLREERLAQYESKKAKKPALVAKSSILLDVKPWDDETDMAKLEECVRSIQADGLVWGSSKLVPVGYGIKKLQIQCVVEDDKVGTDMLEEQITAFEDYVQSMDVAAFNKI
notes: EEF1B (guanine nucleotide exchange factor subunit of EEF1H), human, endogenous in HEK293T; source: endogenous, HEK293T lysate
Turning to B3, in assay [4], the “stoichiometry N” value is around 1. Also, the “copies in the EEF1H complex” value in assay [3] is around 4 copies.
